This is an account of results in patent US20240082313A1, “PHARMACEUTICAL COMPOSITIONS AND THEIR METHODS OF USE” (The Trustees of Indiana University, priority 2021, published 2024).

Assay [1] has as its system 4T1.2 cells. The assay can be described thus: Western blot analysis. The class given is cell-based, mouse. The settings on record: for level of Kdm3a: 4T1.2 cells; for Lrp5, MMP9, Runx2, TGFβ, and Snail: recombinant protein applied extracellularly to 4T1.2 cells. The procedure: Western blot analysis. Cultured cells were lysed in a radio-immunoprecipitation assay (RIPA) buffer and proteins were fractionated by 10-15% SDS gels and electro-transferred to polyvinylidene difluoride (PVDF) transfer membranes (Millipore, Billerica, MA, USA). The membrane was incubated overnight with primary antibodies and then with secondary antibodies conjugated with horseradish peroxidase (Cell Signaling, Danvers, MA, USA). Antibodies against c-Myc, Oct4, Sox2, Klf4, Lrp5, Runx2, Snail, TGFβ, Eno1, Eef2, vinculin (Cell Signaling, Danvers, MA, USA), MMP9, NFATc1, cathepsin K (Santa Cruz, Dallas, TX, USA), TRAIL (Novus, Centennial, CO, USA), p53 (Invitrogen, Carlsbad, CA, USA), Hsp90ab1 (Abcam, Cambridge, UK), Kdm3a (Thermo-Fisher Scientific, Waltham, MA, USA) and β-actin as a control (Sigma, St. Louis, MO, USA) were employed. The level of proteins was determined using a SUPERSIGNAL™ west femto maximum sensitivity substrate (Thermo-Fisher Scientific, Waltham, MA, USA), and a luminescent image analyzer (LAS-3000, Fuji Film, Tokyo, Japan) was used to quantify signal intensities.
Background: A western blot detects proteins with antibodies after separation by electrophoresis.

Assay [2] concerns EO771 mammary tumor cells. Put plainly: Tumor selectivity from MTT-based viability (tumor vs non-tumor cells). The class given is cell-based, mouse. To be noted: tumor cells EO. From the text: (§1) Variations in tumor selectivity among the predicted tumor-suppressing proteins. Tumor-suppressing proteins may inhibit the progression of tumor cells but not inhibit the progression of non-tumor cells. Using the MTT-based viability, tumor selectivity was defined as a ratio of (reduction in MTT-based viability of tumor cells) to (reduction in MTT-based viability of non-tumor cells). The tumor selectivity may be above one to remove tumor cells and a larger value may signify a reduction in the inhibition of the growth of non-tumor cells. The tumor selectivity was determined using three tumor cells (4T1.2 mouse mammary tumor cells, EO771 mammary tumor cells, and MDA-MB-231 breast cancer cells) and three non-tumor cells (adipose cells, MLO-A5 osteocytes, and murine MSCs). […] Table 2 provides the tumor selectivity of 4T1.2 Oct4 CM, 4T1.2 c-Myc CM, and 10 tumor-suppressing protein candidates.

For assay [3], the system named is 4T1.2 cells. The assay can be described thus: TRANSWELL invasion assay. The class given is cell-based, mouse. The procedure: TRANSWELL® invasion assay. In a TRANSWELL® invasion assay, approximately 5×10^4 cells in 200 μL serum-free DMEM were placed on the upper TRANSWELL® chamber (Thermo Fisher Scientific, Waltham, MA, USA) with MATRIGEL™ (100 μg/ml), and 800 μL of CM was added in the lower chamber. After 48 h, the cells that had invaded the lower side of the membrane were stained with Crystal Violet. At least five randomly chosen images were taken, and the average number of stained cells was determined.

The test system of another assay is adipose-derived MSCs. Put plainly: MTT-based viability of non-tumor cells. In kind it is cell-based, human.
Description: as §1

For assay [4], the system named is 4T1.2 mouse mammary tumor cells. The assay can be described thus: Tumor selectivity from MTT-based viability (tumor vs non-tumor cells). In kind it is cell-based.
Description: as §1

The subject of assay [5] is MDA-MB-231 breast cancer cells. The assay is described as above. The class given is cell-based, human.
Description: as §1

Assay [6] has as its system 4T1.2 cells. The assay can be described thus: EdU assay. The class given is cell-based, mouse. The protocol:
EdU assay. Using a procedure previously reported, approximately 1,000 cells were seeded in 96-well plates on day 1. CM was added on day 2 and cellular proliferation was examined with a fluorescence-based cell proliferation kit (CLICK-IT™ EdU ALEXA FLUOR™ 488 Imaging Kit; Thermo-Fisher, Waltham, MA, USA) on day 4. After fluorescent labeling, the number of fluorescently labeled cells was counted and the ratio to the total number of cells was determined.

For “Hsp90ab1: heat shock protein 90 alpha family class B member 1 recombinant protein”, in the assay with 4T1.2 cells [1], the “level of Kdm3a” value is “reduced”. Also, in the assay with 4T1.2 cells [1], the “Lrp5, MMP9, Runx2, TGFβ, and Snail” value is recorded as “downregulated”. The Tumor selectivity in assay [2] (non-tumor cells A5) worked out at 1.55; in assay [2] (non-tumor cells MSC) it was 2.65; in assay [4] (non-tumor cells A5), 1.68; in assay [4] (non-tumor cells MSC), 2.86; in assay [5] (non-tumor cells A5) it was 1.02; in assay [5] (non-tumor cells MSC) it was 1.74. The TRANSWELL invasion entry with 4T1.2 cells [3] was “reduced”. Besides, the “MTT-based viability of non-tumor cells” value with adipose-derived MSCs is “elevated”.

B1: vinculin: vinculin recombinant protein (protein, UniProt Q64727 1-1066, looked up)
Vinculin: MPVFHTRTIESILEPVAQQISHLVIMHEEGEVDGKAIPDLTAPVAAVQAAVSNLVRVGKETVQTTEDQILKRDMPPAFIKVENACTKLVQAAQMLQSDPYSVPARDYLIDGSRGILSGTSDLLLTFDEAEVRKIIRVCKGILEYLTVAEVVETMEDLVTYTKNLGPGMTKMAKMIDERQQELTHQEHRVMLVNSMNTVKELLPVLISAMKIFVTTKNSKNQGIEEALKNRNFTVEKMSAEINEIIRVLQLTSWDEDAWASKDTEAMKRALASIDSKLNQAKGWLRDPNASPGDAGEQAIRQILDEAGKVGELCAGKERREILGTCKMLGQMTDQVADLRARGQGASPVAMQKAQQVSQGLDVLTAKVENAARKLEAMTNSKQSIAKKIDAAQNWLADPNGGPEGEEQIRGALAEARKIAELCDDPKERDDILRSLGEIAALTSKLGDLRRQGKGDSPEARALAKQVATALQNLQTKTNRAVANSRPAKAAVHLEGKIEQAQRWIDNPTVDDRGVGQAAIRGLVAEGHRLANVMMGPYRQDLLAKCDRVDQLTAQLADLAARGEGESPQARALASQLQDSLKDLKAQMQEAMTQEVSDVFSDTTTPIKLLAVAATAPPDAPNREEVFDERAANFENHSGRLGATAEKAAAVGTANKSTVEGIQASVKTARELTPQVISAARILLRNPGNQAAYEHFETMKNQWIDNVEKMTGLVDEAIDTKSLLDASEEAIKKDLDKCKVAMANIQPQMLVAGATSIARRANRILLVAKREVENSEDPKFREAVKAASDELSKTISPMVMDAKAVAGNISDPGLQKSFLDSGYRILGAVAKVREAFQPQEPDFPPPPPDLEQLRLTDELAPPKPPLPEGEVPPPRPPPPEEKDEEFPEQKAGEVINQPMMMAARQLHDEARKWSSKGNDIIAAAKRMALLMAEMSRLVRGGSGTKRALIQCAKDIAKASDEVTRLAKEVAKQCTDKRIRTNLLQVCERIPTISTQLKILSTVKATMLGRTNISDEESEQATEMLVHNAQNLMQSVKETVREAEAASIKIRTDAGFTLRWVRKTPWYQ
Turning to B1, the EdU-based proliferation entry in the assay on 4T1.2 cells [6] was “reduced”. The “level of Kdm3a” value with 4T1.2 cells [1] is on record as “reduced”. Further, the “Lrp5, MMP9, Runx2, TGFβ, and Snail” value with 4T1.2 cells [1] is “downregulated”. Moreover, the Tumor selectivity in assay [2] (non-tumor cells A5) turned out to be 0.67; in assay [2] (non-tumor cells Adipose), 1.27; in assay [2] (non-tumor cells MSC), 0.89; in assay [4] (non-tumor cells A5), 0.99; in assay [4] (non-tumor cells Adipose) it was 1.43; in assay [4] (non-tumor cells MSC), 1.57. The Tumor selectivity in assay [5] (non-tumor cells A5) came to 1.13; in assay [5] (non-tumor cells Adipose) it was 1.88; in assay [5] (non-tumor cells MSC) it was 1.43. Also, in the assay with 4T1.2 cells [3], the TRANSWELL invasion entry is listed as “reduced”.
